Tested on: MS2 coat protein
Assay: apparent KD of MS2 coat protein; higher = weaker reporter binding
Details: Eterna round: R107
How it was run: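 Illumina sequencing clusters served as templates for on-chip transcription of the designed RNA switches. SNAP-549-labelled MS2 coat protein was then titrated in twofold steps from 0.7 or 1.5 nM to 3 µM, allowing 0.8–1.5 h per step at first and 10–20 min per step later. The buffer held 100 mM Tris-HCl pH 7.5, 80 mM KCl and 4 mM MgCl2, without or with constant ligand. Apparent KD is the median per design of normalised cluster binding-curve fits.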

[1] = input ligand: theophylline 20 uM
[2] = input ligand: tryptophan 2.4 mM
[3] = input ligand: theophylline 2 mM

Row | Sequence | apparent KD of MS2 coat protein (input ligand: arginine 13.2 mM) | apparent KD of MS2 coat protein [1] | apparent KD of MS2 coat protein [2] | apparent KD of MS2 coat protein [3] | apparent KD of MS2 coat protein (input ligand: none)
1 | UGUAACAUGAGGAUCACCCAUGUGAGUGAUACCAGAUUAGUAGUAGUCCCUUGGCAGCAUAUUGGGCGAGUGUAUAGUCUAUGCG [Same State - Theophylline A (Freestyle 10)] | 94 nM | 250 nM | 205 nM | – | –
2 | UAUAAUAACUCGGCCGCCACUGGCACAUGAGGAUCACCCAUGUCUAUAUAUAAUAUAUAGUUGCACAGGACCGGGAGAUAUAUAU [Exclusion - Tryptophan B] | 10.5 nM | 12.5 nM | – | 10.5 nM | –
3 | GUGUACAUGAGGAUCACCCAUGUCGAGUUACGAGGACCGGUACGGCCGCCACUCGGCGGCUCGACACGGAUAGCGGUGCGUUGCU [Exclusion - Tryptophan A] | 18.2 nM | 40.8 nM | 129 nM | 35.4 nM | 33.2 nM
4 | ACAUGAGGCUCACCCAUGUGUAGUGGGUGGCGAGGACCGGUACGGCCGCCACUCGGCAACAUGAGGAUCACCCAUGUAAGGCCCU [RNA Blob] | 39.6 nM | 134 nM | 35 nM | 148 nM | 133 nM
5 | GACAUGAGGAUCACCCAUGUUGACUAUGAAGGAGCGUCGGAAAUGACAGGUAGGUCGCAUAGUCGACCUUGUAUUUUGUGUGUUU [EAA #9] | 12.7 nM | 17.4 nM | 11.6 nM | 12.5 nM | 10.4 nM
6 | CCCAAUUUCCGAGAUAUGGGUCCAACUAAACGAGGACCGGUACGGCCGCCACUCGACUACAAACAUGAGGAUCACCCAUGUAAAG [theeternabot_exclusion_MS2_Trp_A_40] | 17.6 nM | 20 nM | – | 19.8 nM | –
7 | CGAGUAAGUUCAAUCGAAUAACGGUUUUCGCGAGGACCGGUACGGCCGCCACUCGUGUGAUAUCACACAUGAGGAUCACCCAUGU [3'end-1] | 42.7 nM | 77.1 nM | – | 135 nM | –
8 | GGAAUAACGAUUGAUACCAGCAUGUUAACAUGAGGAUCACCCAUGUUAAGGAUAACAUAAUGCCCUUGGCAGCAACGGAAACCCG [#23Same State - Theophylline B] | 16.3 nM | 19.2 nM | 17.8 nM | – | –
9 | UUGUGGCGCUCGGCCGCCACUCCGACAUGAGGAUCACCCAUGUUCUACAUGAGGAUCACCCAUGUGAGGACCGGGAGACACAACC [Exclusion Tryptophan B GF12] | 137 nM | 102 nM | 165 nM | 134 nM | 126 nM
10 | AACAUGAGGAUCACCCAUGUAAAACCGGUACGAGGACCGGUACGGCCGCCACUCGAAACAUGAGGAUCACCCAUGUAAUAAUAUU [Same State Trypophan A GF 21] | 35.2 nM | 75 nM | 91.3 nM | 68.6 nM | 63.5 nM
11 | AAAAGAGGUGGAAGGAGCGGGAGACAUGAGGAUCACCCAUGUGAAGUGACGAAAGGAUCAUCCCAGGUAGGUCGCCAUGUCGAAA [csstmullin] | 5.43 nM | 44.6 nM | 21.7 nM | 39 nM | 147 nM
12 | GGCCGGUGCGCUUUGAAGCGACGGCGUGAUACCAGAUGUAAGAGCGUCCCUUGGCAGCACGUUUACAUGAGGAUCACCCAUGUCU [Zaveusxe] | 53.2 nM | 256 nM | 220 nM | – | –
13 | CUCUGAGUGAGUAAUCACUCAGAGGCGGAUACCAGCGAGGUCCAUCGCCCUUGGCAGCCGAACAUGAGGAUCACCCAUGUCGGUA [#1 Same State - Theophylline A Attempt #24 (HarryS)] | 8.82 nM | 12.2 nM | 11.7 nM | – | –
14 | AAAAGAGGUGGAAGGAGCGGGAGACAUGAGGAUCACCCAUGUGAAGUGACGAAAGGAUCAGCCCAGGUAGGUCGCCAUGUCGAAA [yuiiumullin] | 31 nM | 73.2 nM | 41.3 nM | 25.9 nM | 43.9 nM
15 | UGACAUUGCUCAGAUACCAGACAUGAGGAUCACCCAUGUGCCAACGUACAAAUAAUAAAUGUCCCUUGGCAGCUGAGCAAUGUCU [TheoBX 15 #MS2Left #Theo2] | 16.2 nM | 19.9 nM | 11.4 nM | – | –
16 | ACAUGAGGAUCACCCAUGUAGUGGCACGAUACCAGCUGAUCCCGUGGCCCUUGGCAGCGUCCGGUGUGGUGCGCCGGGAUGGAGC [ZSZMULLIN] | 21.8 nM | 50.8 nM | 35.6 nM | 40.7 nM | 28.4 nM
17 | AACAUGAGGAUCACCCAUGUAUUGGGUGAUACCAGCCUGAAUAAGGGCCCUUGGCAGCACCGCGCUAACUUUAUGUCUGCGAACC [Rebiercete] | 511 nM | 432 nM | 277 nM | 368 nM | 54.1 nM
18 | CUUGUGCUGACGGCCGCCACUUUAUGGGAGUCCUGUUCUGAUUGAUACAUGAGGAUCACCCAUGUAAGGACCGGGUCGUACCAUA [theeternabot_exclusion_MS2_Trp_B_22] | 22.7 nM | 27.4 nM | – | 22.7 nM | –
19 | GCCUGGGAUACGGCCGCCACUACAUGAGGAUCACCCAUGUAAUAUUUAUUAGAAGAGAGGGUAUGUAGGACCGGGUAAGGAAGGC [e-trypB-0] | 14.3 nM | 24.9 nM | 26 nM | 22.5 nM | 15.8 nM

From the supplement of paper PMC9170038
